Reference: article PMC11493271, “The N-terminal activation function AF-1 domain of ERα interacts directly with the C-terminal AF-2-holding ligand-binding domain to recruit the coactivator proteins” (PLOS ONE, 2024)
Entries after “also recorded” stand apart in the source; their conditions may differ.

B1: ERα-NTD(AF-1): ERα N-terminal fragment with amino acid residues 1–180, expressed from plasmid ERα-NTD(AF-1)/pcDNA3.1 (protein)
chain: MTMTLHTKASGMALLHQIQGNELEPLNRPQLKIPLERPLGEVYLDSSKPAVYNYPEGAAYEFNAAAAANAQVYGQTGLPYGPGSEAAAFGSNGLGGFPPLNSVSPSPLMLLHPPPQLSPFLQPHGQQVPYYLENEPSGYTVREAGPPAFYRPNSDNRRQGGRERLASTNDKGSMAMESAK
B2: FLAG-ERα-NTD(AF-1): ERα-NTD(AF-1) tagged at the N-terminus with DYKDDDDK, a FLAG-epitope peptide (protein)
chain: B1 chain
modifications: left off: FLAG, N-terminal, kept

Key:
[1] = molecular target: desNTD(AF-1)-ERα, ERα C-terminal fragment with amino acid residues 181-595 (human) (UniProt P03372)
[2] = molecular target: full-length estrogen receptor alpha (ERα), wild type (1-595) (human) (UniProt P03372)
[3] = molecular target: full-length estrogen receptor alpha (ERα), wild type (1-595) (human) (UniProt P03372); remark: listed apart in the source
full-length ERα = molecular target: T1, full-length ERα (Homo sapiens, UniProt P03372); assay: ERα-NTD(AF-1) inhibition assay: co-expression with full-length ERα, luciferase reporter gene assay in HeLa cells; assay type: cell-based; conditions: for effect on transcription activity of full-length ERα: plasmid 0.01–2.00 μg/well with full-length ERα 0.05 μg/well, E2 0.1, 1 or 50 nM, Fig 3
T1 construct: […]; host or cells: HeLa cells
T1 sequence (P03372 1-595): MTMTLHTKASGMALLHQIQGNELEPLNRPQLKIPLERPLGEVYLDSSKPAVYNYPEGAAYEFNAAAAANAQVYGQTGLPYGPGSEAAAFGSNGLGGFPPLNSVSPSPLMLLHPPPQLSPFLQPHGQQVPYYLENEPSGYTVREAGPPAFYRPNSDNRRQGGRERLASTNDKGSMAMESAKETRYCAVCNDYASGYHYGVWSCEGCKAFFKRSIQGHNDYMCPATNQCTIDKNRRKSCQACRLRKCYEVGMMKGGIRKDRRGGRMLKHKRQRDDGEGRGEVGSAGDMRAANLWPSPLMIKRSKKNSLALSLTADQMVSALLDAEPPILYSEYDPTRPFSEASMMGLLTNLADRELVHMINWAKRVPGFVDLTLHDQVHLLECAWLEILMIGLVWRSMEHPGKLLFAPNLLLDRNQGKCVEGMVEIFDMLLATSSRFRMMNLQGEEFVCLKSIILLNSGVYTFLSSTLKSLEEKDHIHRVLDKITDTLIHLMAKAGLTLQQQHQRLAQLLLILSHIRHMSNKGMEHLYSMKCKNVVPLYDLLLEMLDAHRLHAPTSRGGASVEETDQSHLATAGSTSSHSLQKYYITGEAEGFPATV
Description: Other expression plasmids were used in fixed amounts: full-length ERα/pcDNA3.1 (0.05 μg/well), 3 × ERE/pGL3 (0.15 μg/well), and pGL4.74 (0.05 μg/well) (Table 1).
Gene transfections followed by luciferase reporter gene assays were carried out basically as described above.
Thus, each distinct maximal activity was evaluated precisely as a percentage.

[4] = test system: 3 × ERE/pGL3 luciferase reporter; assay: Transcription activity of truncated ERα derivatives in the luciferase reporter gene assay (HeLa cells); conditions: plasmid 250 ng/well
Description: (§1) The luciferase reporter gene assays were carried out exactly as described above.

desNTD(AF-1)-ERα = molecular target: T2, desNTD(AF-1)-ERα (Homo sapiens, UniProt P03372); assay: Luciferase reporter gene assay for desNTD(AF-1)-ERα, alone or co-expressed with ERα-NTD(AF-1), in HeLa cells
T2 sequence (P03372 181-595): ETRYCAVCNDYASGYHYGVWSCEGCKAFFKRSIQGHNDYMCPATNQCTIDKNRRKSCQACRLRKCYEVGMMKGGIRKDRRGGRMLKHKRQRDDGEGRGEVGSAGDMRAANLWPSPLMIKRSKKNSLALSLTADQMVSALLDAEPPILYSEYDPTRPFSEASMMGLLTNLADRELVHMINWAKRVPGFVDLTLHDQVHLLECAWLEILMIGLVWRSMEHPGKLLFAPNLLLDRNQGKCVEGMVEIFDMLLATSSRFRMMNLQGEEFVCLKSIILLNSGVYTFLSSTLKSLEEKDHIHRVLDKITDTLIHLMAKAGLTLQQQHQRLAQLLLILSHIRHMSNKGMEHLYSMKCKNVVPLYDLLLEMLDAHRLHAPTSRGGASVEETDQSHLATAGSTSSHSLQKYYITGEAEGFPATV
Description: as §1

Molecule | luciferase reporter gene assay in HeLa cells: apparent IC50 of the ERα-NTD(AF-1) plasmid (amount transfected per well of a 6-well microplate) for inhibition of desNTD(AF-1)-ERα [1] | luciferase reporter gene assay in HeLa cells: apparent IC50 of the ERα-NTD(AF-1) plasmid (amount transfected per well of a 6-well microplate) for the activity of 10 nM E2 on full-length ERα [2] | luciferase reporter gene assay in HeLa cells: IC50 of the ERα-NTD(AF-1) plasmid (amount transfected per well of a 6-well microplate) from the curve of the maximal activity of ERα/E2 [3] | IC50 from transfection amount vs maximal activity of ERα/E2 (full-length ERα; E2 dose-response maxima, plasmid per well of 6-well microplate, Fig 4C) | effect on transcription activity of full-length ERα (full-length ERα) | apparent IC50 for inhibition of full-length ERα (full-length ERα; residual activity of 10 nM E2, plasmid per well of 6-well microplate, Fig 4A) | mode of inhibition of full-length ERα (full-length ERα; with respect to E2) | transcription activation (response to E2) ([4]; construct expressed alone) | relative activity (% of wild-type full-length ERα) ([4]; maximal E2 activity) | reduction in E2-induced transactivation compared to desNTD(AF-1)-ERα alone (desNTD(AF-1)-ERα; ERα-NTD(AF-1): desNTD(AF-1)-ERα = 1:1, desNTD(AF-1)-ERα 250 ng/well) | apparent IC50 for inhibition of desNTD(AF-1)-ERα (desNTD(AF-1)-ERα; plasmid amount per well of 6-well microplate used for transfection) | reduction in E2-induced transactivation compared to desNTD(AF-1)-ERα alone (desNTD(AF-1)-ERα; ratio 2:1) | reduction in E2-induced transactivation compared to desNTD(AF-1)-ERα alone (desNTD(AF-1)-ERα; ratio 3:1) | reduction in E2-induced transactivation compared to desNTD(AF-1)-ERα alone (desNTD(AF-1)-ERα; ratio 4:1) | reduction in E2-induced transactivation compared to desNTD(AF-1)-ERα alone (desNTD(AF-1)-ERα; ratio 5:1) | reduction in E2-induced transactivation compared to desNTD(AF-1)-ERα alone (desNTD(AF-1)-ERα; ratio 6:1)
ERα-NTD(AF-1), untethered free N-terminal fragment of estrogen receptor alpha (residues 1-180), non-tagged (from UniProt P03372 1-180) (domain or fragment) | 863 ng/well | 836 ng/well | 631 ng/well |  |  |  |  |  |  |  |  |  |  |  |  | 
B1 |  |  |  | 631 ng/well | reduced in a dose-dependent manner | 836 ng/well | non-competitive inhibitor | completely inactive; also recorded: completely devoid of transcription activation | 0% | ~20% | 863 ng/well | 44% | 62% | 73% | 85% | 91%
B2 |  |  |  |  | inhibits full-length ERα |  |  |  |  |  |  |  |  |  |  | 
